# Laboratory results taken from paper PMC12089923.
# Biological target: AffiTagged cyclicPfAMA1-DI (folded protein 45) (Plasmodium falciparum)
# Test: SPR; AffiTagged cyclicPfAMA1-DI held on a nickel-NTA chip (BI-4500, Biosensing Instrument Inc.), PfRON2_(2021-2059) in solution; kinetic fit, average of three repeats
substance,measurement,value
PfRON2_(2021-2059) peptide (rhoptry neck protein 2 ectodomain peptide) (from UniProt Q8IKV6 2021-2059),Kd,500 nM
same,koff,0.0708 s⁻¹
same,kon,142000 M⁻¹ s⁻¹
